Experimental data reported in PMC3791462, “Role of the C-terminal domain in the structure and function of tetrameric sodium channels” (Nature Communications, 2013).
Numbering of substitutions follows the chain as printed. Names may count otherwise.

B1: NavMs-pore+CTD (wild-type pore with full-length C-terminal domain of the NavMs sodium channel from Magnetococcus marinus MC-1) (domain or fragment, UniProt A0L5S6 130-274, looked up)
chain: GVGSVAALLTVVFYIAAVMATNLYGATFPEWFGDLSKSLYTLFQVMTLESWSMGIVRPVMNVHPNAWVFFIPFIMLTTFTVLNLFIGIIVDAMAITKEQEEEAKTGHHQEPISQTLLHLGDRLDRIEKQLAQNNELLQRQQPQKK
notes: Plasmid pET15b; also called unlabelled wild-type construct; wild-type pore+CTD protein; source: E. coli C41(DE3), purified (HisTrap HP, thrombin, second HisTrap HP, size exclusion) in HEGA-10
B2: NavMs-pore+CTD A221C/D250C double mutant, PROXYL spin-labelled (domain or fragment, Magnetococcus marinus MC-1, UniProt A0L5S6 130-274, looked up)
chain: B1 chain with A92C, D121C
modifications: 3-(2-iodoacetamido)-PROXYL nitroxide spin labels on cysteines 221 and 250
notes: source: E. coli C41(DE3), purified (HisTrap HP, thrombin, size exclusion), spin-labelled
B3: NavMs-pore+CTD D250C, PROXYL spin-labelled (domain or fragment, Magnetococcus marinus MC-1, UniProt A0L5S6 130-274, looked up)
chain: B1 chain with D121C
modifications: 3-(2-iodoacetamido)-PROXYL nitroxide spin label on cysteine 250
notes: as for B2
B4: NavMs-pore+CTD A223C, PROXYL spin-labelled (domain or fragment, Magnetococcus marinus MC-1, UniProt A0L5S6 130-274, looked up)
chain: B1 chain with A94C
modifications: 3-(2-iodoacetamido)-PROXYL nitroxide spin label on cysteine 223
notes: as for B2
B5: NavMs-pore+CTD A221C, PROXYL spin-labelled (domain or fragment, Magnetococcus marinus MC-1, UniProt A0L5S6 130-274, looked up)
chain: B1 chain with A92C
modifications: 3-(2-iodoacetamido)-PROXYL nitroxide spin label on cysteine 221
notes: as for B2
B6: NavMs-pore+CTD A232C, PROXYL spin-labelled (domain or fragment, Magnetococcus marinus MC-1, UniProt A0L5S6 130-274, looked up)
chain: B1 chain with A103C
modifications: 3-(2-iodoacetamido)-PROXYL nitroxide spin label on cysteine 232
notes: as for B2
B7: NavMs-pore+CTD R268C, PROXYL spin-labelled (domain or fragment, Magnetococcus marinus MC-1, UniProt A0L5S6 130-274, looked up)
chain: B1 chain with R139C
modifications: 3-(2-iodoacetamido)-PROXYL nitroxide spin label on cysteine 268
notes: as for B2
B8: NavMs-pore+CTD A260C, PROXYL spin-labelled (domain or fragment, Magnetococcus marinus MC-1, UniProt A0L5S6 130-274, looked up)
chain: B1 chain with A131C
modifications: 3-(2-iodoacetamido)-PROXYL nitroxide spin label on cysteine 260
notes: as for B2
B9: NavMs-pore+CTD I241C, PROXYL spin-labelled (domain or fragment, Magnetococcus marinus MC-1, UniProt A0L5S6 130-274, looked up)
chain: B1 chain with I112C
modifications: 3-(2-iodoacetamido)-PROXYL nitroxide spin label on cysteine 241
notes: as for B2
B10: NavMs-pore+CTD K273C, PROXYL spin-labelled (domain or fragment, Magnetococcus marinus MC-1, UniProt A0L5S6 130-274, looked up)
chain: B1 chain with K144C
modifications: 3-(2-iodoacetamido)-PROXYL nitroxide spin label on cysteine 273
notes: as for B2

Target: the molecule itself
Assay: SEC; Superdex 200 10/300 GL, buffer A (10 mM Tris-HCl pH 7.5, 100 mM NaCl, 0.52% HEGA-10); detergent-solubilised protein

Stoichiometry N, 4:
B1, B2, B3, B4, B5, B6, B7, B8, B9, B10
